Sequences and labels used below:
B1: Trinucleotide repeat-containing gene 6C protein (Homo sapiens), Q9HCJ0-1 (parent)
chain: MATGSAQGNFTGHTKKTNGNNGTNGALVQSPSNQSALGAGGANSNGSAARVWGVATGSSSGLAHCSVSGGDGKMDTMIGDGRSQNCWGASNSNAGINLNLNPNANPAAWPVLGHEGTVATGNPSSICSPVSAIGQNMGNQNGNPTGTLGAWGNLLPQESTEPQTSTSQNVSFSAQPQNLNTDGPNNTNPMNSSPNPINAMQTNGLPNWGMAVGMGAIIPPHLQGLPGANGSSVSQVSGGSAEGISNSVWGLSPGNPATGNSNSGFSQGNGDTVNSALSAKQNGSSSAVQKEGSGGNAWDSGPPAGPGILAWGRGSGNNGVGNIHSGAWGHPSRSTSNGVNGEWGKPPNQHSNSDINGKGSTGWESPSVTSQNPTVQPGGEHMNSWAKAASSGTTASEGSSDGSGNHNEGSTGREGTGEGRRRDKGIIDQGHIQLPRNDLDPRVLSNTGWGQTPVKQNTAWEFEESPRSERKNDNGTEAWGCAATQASNSGGKNDGSIMNSTNTSSVSGWVNAPPAAVPANTGWGDSNNKAPSGPGVWGDSISSTAVSTAAAAKSGHAWSGAANQEDKSPTWGEPPKPKSQHWGDGQRSNPAWSAGGGDWADSSSVLGHLGDGKKNGSGWDADSNRSGSGWNDTTRSGNSGWGNSTNTKANPGTNWGETLKPGPQQNWASKPQDNNVSNWGGAASVKQTGTGWIGGPVPVKQKDSSEATGWEEPSPPSIRRKMEIDDGTSAWGDPSNYNNKTVNMWDRNNPVIQSSTTTNTTTTTTTTTSNTTHRVETPPPHQAGTQLNRSPLLGPGRKVSSGWGEMPNVHSKTENSWGEPSSPSTLVDNGTAAWGKPPSSGSGWGDHPAEPPVAFGRAGAPVAASALCKPASKSMQEGWGSGGDEMNLSTSQWEDEEGDVWNNAASQESTSSCSSWGNAPKKGLQKGMKTSGKQDEAWIMSRLIKQLTDMGFPREPAEEALKSNNMNLDQAMSALLEKKVDVDKRGLGVTDHNGMAAKPLGCRPPISKESSVDRPTFLDKDGGLVEEPTPSPFLPSPSLKLPLSHSALPSQALGGIASGLGMQNLNSSRQIPSGNLGMFGNSGAAQARTMQQPPQPPVQPLNSSQPSLRAQVPQFLSPQVQAQLLQFAAKNIGLNPALLTSPINPQHMTMLNQLYQLQLAYQRLQIQQQMLQAQRNVSGSMRQQEQQVARTITNLQQQIQQHQRQLAQALLVKQPPPPPPPPHLSLHPSAGKSAMDSFPSHPQTPGLPDLQTKEQQSSPNTFAPYPLAGLNPNMNVNSMDMTGGLSVKDPSQSQSRLPQWTHPNSMDNLPSAASPLEQNPSKHGAIPGGLSIGPPGKSSIDDSYGRYDLIQNSESPASPPVAVPHSWSRAKSDSDKISNGSSINWPPEFHPGVPWKGLQNIDPENDPDVTPGSVPTGPTINTTIQDVNRYLLKSGGKLSDIKSTWSSGPTSHTQASLSHELWKVPRNSTAPTRPPPGLTNPKPSSTWGASPLGWTSSYSSGSAWSTDTSGRTSSWLVLRNLTPQIDGSTLRTLCLQHGPLITFHLNLTQGNAVVRYSSKEEAAKAQKSLHMCVLGNTTILAEFAGEEEVNRFLAQGQALPPTSSWQSSSASSQPRLSAAGSSHGLVRSDAGHWNAPCLGGKGSSELLWGGVPQYSSSLWGPPSADDSRVIGSPTPLTTLLPGDLLSGESL

The variants in assay [1] derive from B1. Conditions: with pabp_drome pAbp.
Assay [2] covers variants of B1. The note with it: with cnot1_human CNOT1, A5YKK6.
Sequence of cnot1_human CNOT1, A5YKK6 (A5YKK6 whole entry): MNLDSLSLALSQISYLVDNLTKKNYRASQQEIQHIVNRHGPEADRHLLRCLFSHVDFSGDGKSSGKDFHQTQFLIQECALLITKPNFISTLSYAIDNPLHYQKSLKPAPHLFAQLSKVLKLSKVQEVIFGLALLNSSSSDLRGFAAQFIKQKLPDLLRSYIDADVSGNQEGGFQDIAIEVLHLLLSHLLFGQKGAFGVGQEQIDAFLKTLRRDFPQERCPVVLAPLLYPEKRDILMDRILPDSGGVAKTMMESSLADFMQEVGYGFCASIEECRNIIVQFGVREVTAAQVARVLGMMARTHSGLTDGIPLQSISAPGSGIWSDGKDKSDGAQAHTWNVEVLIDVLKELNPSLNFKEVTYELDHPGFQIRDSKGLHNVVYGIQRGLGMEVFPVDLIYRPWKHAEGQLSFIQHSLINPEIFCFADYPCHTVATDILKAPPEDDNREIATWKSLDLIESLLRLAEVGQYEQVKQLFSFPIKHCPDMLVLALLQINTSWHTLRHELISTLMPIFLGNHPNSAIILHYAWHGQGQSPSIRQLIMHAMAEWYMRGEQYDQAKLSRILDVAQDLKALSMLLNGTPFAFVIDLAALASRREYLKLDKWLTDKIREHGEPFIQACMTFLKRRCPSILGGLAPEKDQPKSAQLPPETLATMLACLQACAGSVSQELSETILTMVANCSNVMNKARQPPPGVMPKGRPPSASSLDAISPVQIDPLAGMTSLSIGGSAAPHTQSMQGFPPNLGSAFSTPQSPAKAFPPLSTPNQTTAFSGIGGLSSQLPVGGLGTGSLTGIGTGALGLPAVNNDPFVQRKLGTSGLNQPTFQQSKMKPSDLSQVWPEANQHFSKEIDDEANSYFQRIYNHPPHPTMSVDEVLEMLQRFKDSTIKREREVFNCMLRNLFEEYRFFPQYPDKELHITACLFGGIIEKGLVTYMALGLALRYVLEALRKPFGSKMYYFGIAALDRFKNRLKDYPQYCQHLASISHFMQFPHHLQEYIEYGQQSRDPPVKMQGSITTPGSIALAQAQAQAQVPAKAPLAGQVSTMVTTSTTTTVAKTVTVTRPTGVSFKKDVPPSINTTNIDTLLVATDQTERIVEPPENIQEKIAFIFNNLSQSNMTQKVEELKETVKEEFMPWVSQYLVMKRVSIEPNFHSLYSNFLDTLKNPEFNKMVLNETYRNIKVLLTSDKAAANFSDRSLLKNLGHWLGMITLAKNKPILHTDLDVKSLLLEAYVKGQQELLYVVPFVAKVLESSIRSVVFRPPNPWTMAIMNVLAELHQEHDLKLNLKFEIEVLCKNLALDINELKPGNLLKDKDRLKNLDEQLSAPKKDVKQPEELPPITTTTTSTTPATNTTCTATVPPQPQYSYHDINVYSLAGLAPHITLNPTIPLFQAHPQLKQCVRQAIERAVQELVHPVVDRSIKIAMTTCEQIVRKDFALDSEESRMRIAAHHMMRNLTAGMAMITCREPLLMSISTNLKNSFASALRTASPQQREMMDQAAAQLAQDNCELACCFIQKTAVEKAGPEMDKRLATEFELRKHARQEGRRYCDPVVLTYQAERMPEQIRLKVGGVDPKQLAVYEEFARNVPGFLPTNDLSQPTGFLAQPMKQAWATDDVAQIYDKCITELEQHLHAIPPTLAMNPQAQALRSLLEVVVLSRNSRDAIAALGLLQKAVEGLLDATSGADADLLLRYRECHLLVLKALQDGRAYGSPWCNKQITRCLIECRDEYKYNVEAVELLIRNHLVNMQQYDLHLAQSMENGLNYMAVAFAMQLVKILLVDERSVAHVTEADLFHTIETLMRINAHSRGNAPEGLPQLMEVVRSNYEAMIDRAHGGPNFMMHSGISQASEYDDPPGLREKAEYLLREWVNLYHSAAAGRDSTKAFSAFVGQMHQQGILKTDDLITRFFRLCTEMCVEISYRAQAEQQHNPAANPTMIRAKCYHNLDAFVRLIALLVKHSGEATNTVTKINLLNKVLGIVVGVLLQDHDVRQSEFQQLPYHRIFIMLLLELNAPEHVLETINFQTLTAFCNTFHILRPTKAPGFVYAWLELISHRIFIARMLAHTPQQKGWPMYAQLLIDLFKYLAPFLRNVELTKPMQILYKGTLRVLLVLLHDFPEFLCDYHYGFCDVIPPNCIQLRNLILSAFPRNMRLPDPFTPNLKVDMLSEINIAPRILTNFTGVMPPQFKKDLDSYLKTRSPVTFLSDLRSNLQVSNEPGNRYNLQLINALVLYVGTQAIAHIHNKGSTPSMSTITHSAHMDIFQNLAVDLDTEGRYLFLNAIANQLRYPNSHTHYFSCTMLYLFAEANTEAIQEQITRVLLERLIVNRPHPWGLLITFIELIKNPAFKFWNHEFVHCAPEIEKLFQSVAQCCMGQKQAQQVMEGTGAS
The variants in assay [3] derive from B1. The note with it: with pabp_drome pAbp. This is another data set of the same source.
In assay [4] the parent is B1. The note with it: with pabp_drome pAbp. This is another data set of the same source.

In the case of F1389A, in assay [1], the “effect of a mutation on the interaction” value is reported as “disrupting interaction”.
Q1294A;S1295A;R1296A;L1297A;Q1299A;W1300A: the “effect of a mutation on the interaction” value in assay [2] was “disrupting interaction”; in assay [3] it was “decreasing interaction”; in assay [4] it was “decreasing interaction”.

Values taken from IntAct's records for PubMed 23463101.
